Reference: PMC9232105, “S-Adenosylmethionine–responsive cystathionine β-synthase modulates sulfur metabolism and redox balance in Mycobacterium tuberculosis” (Science Advances, 2022)
Read-outs that look alike come from different tables or passages of the source.

Experiments:
[1] = biological target: the molecule itself; assay: SEC
[2] = biological target: the molecule itself

Protein	binding result [1]	stoichiometry N [2]	other results
MtbCbs mutant lacking the Bateman module (MtbCbs 1-317) (domain or fragment) MRIAQHISELIGGTPLVRLNSVVPDGAGTVAAKVEYLNPGGSSKDRIAVKMIEAAEASGQLKPGGTIVEPTSGNTGVGLALVAQRRGYKCVFVCPDKVSEDKRNVLIAYGAEVVVCPTAVPPHDPASYYSVSDRLVRDIDGAWKPDQYANPEGPASHYVTTGPEIWADTEGKVTHFVAGIGTGGTITGAGRYLKEVSGGRVRIVGADPEGSVYSGGAGRPYLVEGVGEDFWPAAYDPSVPDEIIAVSDSDSFDMTRRLAREEAMLVGGSCGMAVVAALKVAEEAGPDALIVVLLPDGGRGYMSKIFNDAWMSSYGFL	–	–	stoichiometry N [1]: 2
MtbCbs L454A (enzyme) MRIAQHISELIGGTPLVRLNSVVPDGAGTVAAKVEYLNPGGSSKDRIAVKMIEAAEASGQLKPGGTIVEPTSGNTGVGLALVAQRRGYKCVFVCPDKVSEDKRNVLIAYGAEVVVCPTAVPPHDPASYYSVSDRLVRDIDGAWKPDQYANPEGPASHYVTTGPEIWADTEGKVTHFVAGIGTGGTITGAGRYLKEVSGGRVRIVGADPEGSVYSGGAGRPYLVEGVGEDFWPAAYDPSVPDEIIAVSDSDSFDMTRRLAREEAMLVGGSCGMAVVAALKVAEEAGPDALIVVLLPDGGRGYMSKIFNDAWMSSYGFLRSRLDGSTEQSTVGDVLRRKSGALPALVHTHPSETVRDAIGILREYGVSQMPVVGAEPPVMAGEVAGSVSERELLSAVFEGRAKLADAVSAHMSPPLRMIGAGELVSAAGKALRDWDALMVVEEGKPVGVITRYDLAGFLSEGAGRR	binds	–	–
MtbCbs D432N (enzyme) MRIAQHISELIGGTPLVRLNSVVPDGAGTVAAKVEYLNPGGSSKDRIAVKMIEAAEASGQLKPGGTIVEPTSGNTGVGLALVAQRRGYKCVFVCPDKVSEDKRNVLIAYGAEVVVCPTAVPPHDPASYYSVSDRLVRDIDGAWKPDQYANPEGPASHYVTTGPEIWADTEGKVTHFVAGIGTGGTITGAGRYLKEVSGGRVRIVGADPEGSVYSGGAGRPYLVEGVGEDFWPAAYDPSVPDEIIAVSDSDSFDMTRRLAREEAMLVGGSCGMAVVAALKVAEEAGPDALIVVLLPDGGRGYMSKIFNDAWMSSYGFLRSRLDGSTEQSTVGDVLRRKSGALPALVHTHPSETVRDAIGILREYGVSQMPVVGAEPPVMAGEVAGSVSERELLSAVFEGRAKLADAVSAHMSPPLRMIGAGELVSAAGKALRNWDALMVVEEGKPVGVITRYDLLGFLSEGAGRR	–	4	–
MtbCbs E390A (enzyme) MRIAQHISELIGGTPLVRLNSVVPDGAGTVAAKVEYLNPGGSSKDRIAVKMIEAAEASGQLKPGGTIVEPTSGNTGVGLALVAQRRGYKCVFVCPDKVSEDKRNVLIAYGAEVVVCPTAVPPHDPASYYSVSDRLVRDIDGAWKPDQYANPEGPASHYVTTGPEIWADTEGKVTHFVAGIGTGGTITGAGRYLKEVSGGRVRIVGADPEGSVYSGGAGRPYLVEGVGEDFWPAAYDPSVPDEIIAVSDSDSFDMTRRLAREEAMLVGGSCGMAVVAALKVAEEAGPDALIVVLLPDGGRGYMSKIFNDAWMSSYGFLRSRLDGSTEQSTVGDVLRRKSGALPALVHTHPSETVRDAIGILREYGVSQMPVVGAEPPVMAGEVAGSVSERALLSAVFEGRAKLADAVSAHMSPPLRMIGAGELVSAAGKALRDWDALMVVEEGKPVGVITRYDLLGFLSEGAGRR	–	4	–
MtbCbs I357A (enzyme, also called I357A mutant) MRIAQHISELIGGTPLVRLNSVVPDGAGTVAAKVEYLNPGGSSKDRIAVKMIEAAEASGQLKPGGTIVEPTSGNTGVGLALVAQRRGYKCVFVCPDKVSEDKRNVLIAYGAEVVVCPTAVPPHDPASYYSVSDRLVRDIDGAWKPDQYANPEGPASHYVTTGPEIWADTEGKVTHFVAGIGTGGTITGAGRYLKEVSGGRVRIVGADPEGSVYSGGAGRPYLVEGVGEDFWPAAYDPSVPDEIIAVSDSDSFDMTRRLAREEAMLVGGSCGMAVVAALKVAEEAGPDALIVVLLPDGGRGYMSKIFNDAWMSSYGFLRSRLDGSTEQSTVGDVLRRKSGALPALVHTHPSETVRDAAGILREYGVSQMPVVGAEPPVMAGEVAGSVSERELLSAVFEGRAKLADAVSAHMSPPLRMIGAGELVSAAGKALRDWDALMVVEEGKPVGVITRYDLLGFLSEGAGRR	binds	–	–
MtbCbs W433F (enzyme) MRIAQHISELIGGTPLVRLNSVVPDGAGTVAAKVEYLNPGGSSKDRIAVKMIEAAEASGQLKPGGTIVEPTSGNTGVGLALVAQRRGYKCVFVCPDKVSEDKRNVLIAYGAEVVVCPTAVPPHDPASYYSVSDRLVRDIDGAWKPDQYANPEGPASHYVTTGPEIWADTEGKVTHFVAGIGTGGTITGAGRYLKEVSGGRVRIVGADPEGSVYSGGAGRPYLVEGVGEDFWPAAYDPSVPDEIIAVSDSDSFDMTRRLAREEAMLVGGSCGMAVVAALKVAEEAGPDALIVVLLPDGGRGYMSKIFNDAWMSSYGFLRSRLDGSTEQSTVGDVLRRKSGALPALVHTHPSETVRDAIGILREYGVSQMPVVGAEPPVMAGEVAGSVSERELLSAVFEGRAKLADAVSAHMSPPLRMIGAGELVSAAGKALRDFDALMVVEEGKPVGVITRYDLLGFLSEGAGRR	–	4	–
MtbCbs E388A (enzyme) MRIAQHISELIGGTPLVRLNSVVPDGAGTVAAKVEYLNPGGSSKDRIAVKMIEAAEASGQLKPGGTIVEPTSGNTGVGLALVAQRRGYKCVFVCPDKVSEDKRNVLIAYGAEVVVCPTAVPPHDPASYYSVSDRLVRDIDGAWKPDQYANPEGPASHYVTTGPEIWADTEGKVTHFVAGIGTGGTITGAGRYLKEVSGGRVRIVGADPEGSVYSGGAGRPYLVEGVGEDFWPAAYDPSVPDEIIAVSDSDSFDMTRRLAREEAMLVGGSCGMAVVAALKVAEEAGPDALIVVLLPDGGRGYMSKIFNDAWMSSYGFLRSRLDGSTEQSTVGDVLRRKSGALPALVHTHPSETVRDAIGILREYGVSQMPVVGAEPPVMAGEVAGSVSARELLSAVFEGRAKLADAVSAHMSPPLRMIGAGELVSAAGKALRDWDALMVVEEGKPVGVITRYDLLGFLSEGAGRR	binds	–	–
MtbCbs S393R (enzyme) MRIAQHISELIGGTPLVRLNSVVPDGAGTVAAKVEYLNPGGSSKDRIAVKMIEAAEASGQLKPGGTIVEPTSGNTGVGLALVAQRRGYKCVFVCPDKVSEDKRNVLIAYGAEVVVCPTAVPPHDPASYYSVSDRLVRDIDGAWKPDQYANPEGPASHYVTTGPEIWADTEGKVTHFVAGIGTGGTITGAGRYLKEVSGGRVRIVGADPEGSVYSGGAGRPYLVEGVGEDFWPAAYDPSVPDEIIAVSDSDSFDMTRRLAREEAMLVGGSCGMAVVAALKVAEEAGPDALIVVLLPDGGRGYMSKIFNDAWMSSYGFLRSRLDGSTEQSTVGDVLRRKSGALPALVHTHPSETVRDAIGILREYGVSQMPVVGAEPPVMAGEVAGSVSERELLRAVFEGRAKLADAVSAHMSPPLRMIGAGELVSAAGKALRDWDALMVVEEGKPVGVITRYDLLGFLSEGAGRR	binds	–	–
MtbCbs R450A (enzyme) MRIAQHISELIGGTPLVRLNSVVPDGAGTVAAKVEYLNPGGSSKDRIAVKMIEAAEASGQLKPGGTIVEPTSGNTGVGLALVAQRRGYKCVFVCPDKVSEDKRNVLIAYGAEVVVCPTAVPPHDPASYYSVSDRLVRDIDGAWKPDQYANPEGPASHYVTTGPEIWADTEGKVTHFVAGIGTGGTITGAGRYLKEVSGGRVRIVGADPEGSVYSGGAGRPYLVEGVGEDFWPAAYDPSVPDEIIAVSDSDSFDMTRRLAREEAMLVGGSCGMAVVAALKVAEEAGPDALIVVLLPDGGRGYMSKIFNDAWMSSYGFLRSRLDGSTEQSTVGDVLRRKSGALPALVHTHPSETVRDAIGILREYGVSQMPVVGAEPPVMAGEVAGSVSERELLSAVFEGRAKLADAVSAHMSPPLRMIGAGELVSAAGKALRDWDALMVVEEGKPVGVITAYDLLGFLSEGAGRR	binds	–	–
MtbCbs S411A (enzyme) MRIAQHISELIGGTPLVRLNSVVPDGAGTVAAKVEYLNPGGSSKDRIAVKMIEAAEASGQLKPGGTIVEPTSGNTGVGLALVAQRRGYKCVFVCPDKVSEDKRNVLIAYGAEVVVCPTAVPPHDPASYYSVSDRLVRDIDGAWKPDQYANPEGPASHYVTTGPEIWADTEGKVTHFVAGIGTGGTITGAGRYLKEVSGGRVRIVGADPEGSVYSGGAGRPYLVEGVGEDFWPAAYDPSVPDEIIAVSDSDSFDMTRRLAREEAMLVGGSCGMAVVAALKVAEEAGPDALIVVLLPDGGRGYMSKIFNDAWMSSYGFLRSRLDGSTEQSTVGDVLRRKSGALPALVHTHPSETVRDAIGILREYGVSQMPVVGAEPPVMAGEVAGSVSERELLSAVFEGRAKLADAVSAHMAPPLRMIGAGELVSAAGKALRDWDALMVVEEGKPVGVITRYDLLGFLSEGAGRR	–	4	–
